# Experimental data: article PMC2408616, “Modular Organization and Combinatorial Energetics of Proline–Tyrosine Nuclear Localization Signals” (PLoS Biology, 2008)
# Residue numbers refer to the chain shown, from its start. Names and notes keep the numbering of the source. Where no end group is shown, it is not given here. MBP = not defined here
# T1: Kap104p (yeast (S. cerevisiae), UniProt P38217 1-918)
# T1 construct: Kap104p, yeast homolog of Kapβ2; gene a gift from J. Aitchison, subcloned into pGEX-Tev; also called yeast Karyopherin β2 homolog; source: E. coli Rosetta(DE3)pLysS, purified (glutathione sepharose, TEV cleavage, anion exchange, gel filtration)
# T1 sequence (looked up): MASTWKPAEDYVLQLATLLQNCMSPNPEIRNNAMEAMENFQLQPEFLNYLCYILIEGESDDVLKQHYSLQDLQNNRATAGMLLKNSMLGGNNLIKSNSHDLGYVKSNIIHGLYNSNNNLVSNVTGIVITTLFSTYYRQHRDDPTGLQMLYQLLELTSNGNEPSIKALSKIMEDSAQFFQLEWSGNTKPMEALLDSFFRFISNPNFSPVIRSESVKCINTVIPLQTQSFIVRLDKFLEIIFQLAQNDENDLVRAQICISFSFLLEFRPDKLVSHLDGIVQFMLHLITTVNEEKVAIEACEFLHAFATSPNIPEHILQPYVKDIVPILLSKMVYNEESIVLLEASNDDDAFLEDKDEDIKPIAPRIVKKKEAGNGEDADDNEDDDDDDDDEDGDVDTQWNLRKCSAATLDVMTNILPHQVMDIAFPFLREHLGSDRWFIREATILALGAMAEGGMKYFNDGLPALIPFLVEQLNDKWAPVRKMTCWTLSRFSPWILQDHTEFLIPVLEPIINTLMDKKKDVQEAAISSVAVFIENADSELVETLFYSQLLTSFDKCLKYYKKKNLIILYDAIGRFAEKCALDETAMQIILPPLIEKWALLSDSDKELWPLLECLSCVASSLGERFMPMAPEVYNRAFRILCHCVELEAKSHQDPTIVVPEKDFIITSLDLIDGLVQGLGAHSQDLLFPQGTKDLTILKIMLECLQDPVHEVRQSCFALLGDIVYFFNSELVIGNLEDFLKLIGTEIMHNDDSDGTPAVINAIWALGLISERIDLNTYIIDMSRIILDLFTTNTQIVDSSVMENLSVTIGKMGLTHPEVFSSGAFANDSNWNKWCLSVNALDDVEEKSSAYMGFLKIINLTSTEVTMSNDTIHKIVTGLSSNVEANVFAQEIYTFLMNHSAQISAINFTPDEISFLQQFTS
# B1: MBP–Nab2p NLS (domain or fragment, S. cerevisiae, UniProt P32505 201-251, looked up)
# chain: DNSQRFTQRGGGAVGKNRRGGRGGNRGGRNNNSTRFNPLAKALGMAGESNM
# notes: Nab2p NLS, residues 201-251 (methods; the results say 201-250); also called Nab2p NLS wild type; source: E. coli BL21(DE3), purified (amylose resin, cation exchange)
# B2: MBP–Nab2p NLS L239T (domain or fragment, S. cerevisiae, UniProt P32505 201-251, looked up)
# chain: B1 chain with L39T
# notes: Nab2p NLS, residues 201-251; also called L239 to T; source: E. coli BL21(DE3), purified (amylose resin, cation exchange)
# B3: MBP–Nab2p NLS L239W (domain or fragment, S. cerevisiae, UniProt P32505 201-251, looked up)
# chain: B1 chain with L39W
# notes: Nab2p NLS, residues 201-251; also called L239 to W; source: E. coli BL21(DE3), purified (amylose resin, cation exchange)
# B4: MBP–Nab2p NLS K216A (domain or fragment, S. cerevisiae, UniProt P32505 201-251, looked up)
# chain: B1 chain with K16A
# notes: Nab2p NLS, residues 201-251; source: E. coli BL21(DE3), purified (amylose resin, cation exchange)
# B5: MBP–Nab2p NLS L239K (domain or fragment, S. cerevisiae, UniProt P32505 201-251, looked up)
# chain: B1 chain with L39K
# notes: Nab2p NLS, residues 201-251; also called L239 to K; source: E. coli BL21(DE3), purified (amylose resin, cation exchange)
# B6: MBP–Nab2p NLS R218A (domain or fragment, S. cerevisiae, UniProt P32505 201-251, looked up)
# chain: B1 chain with R18A
# notes: as for B4
# B7: MBP–Nab2p NLS L239R (domain or fragment, S. cerevisiae, UniProt P32505 201-251, looked up)
# chain: B1 chain with L39R
# notes: Nab2p NLS, residues 201-251; also called L239 to R; source: E. coli BL21(DE3), purified (amylose resin, cation exchange)
# B8: MBP–Nab2p NLS F236A (domain or fragment, S. cerevisiae, UniProt P32505 201-251, looked up)
# chain: B1 chain with F36A
# notes: as for B4
# B9: MBP–Nab2p NLS 238PL239/PY (domain or fragment, S. cerevisiae, UniProt P32505 201-251, looked up)
# chain: {MBP}-DNSQRFTQRGGGAVGKNRRGGRGGNRGGRNNNSTRFNPYAKALGMAGESNM
# modifications: reading uncertain
# notes: Nab2p NLS, residues 201-251; also called L239Y; source: E. coli BL21(DE3), purified (amylose resin, cation exchange)
# B10: MBP–Nab2p NLS L239S (domain or fragment, S. cerevisiae, UniProt P32505 201-251, looked up)
# chain: B1 chain with L39S
# notes: Nab2p NLS, residues 201-251; also called L239 to S; source: E. coli BL21(DE3), purified (amylose resin, cation exchange)
# B11: MBP–Nab2p NLS L239M (domain or fragment, S. cerevisiae, UniProt P32505 201-251, looked up)
# chain: B1 chain with L39M
# notes: Nab2p NLS, residues 201-251; also called L239 to M; source: E. coli BL21(DE3), purified (amylose resin, cation exchange)
# B12: MBP–Nab2p NLS L239N (domain or fragment, S. cerevisiae, UniProt P32505 201-251, looked up)
# chain: B1 chain with L39N
# notes: Nab2p NLS, residues 201-251; also called L239 to N; source: E. coli BL21(DE3), purified (amylose resin, cation exchange)
# B13: MBP–Nab2p NLS L239I (domain or fragment, S. cerevisiae, UniProt P32505 201-251, looked up)
# chain: B1 chain with L39I
# notes: as for B4
# B14: MBP–Nab2p NLS L239H (domain or fragment, S. cerevisiae, UniProt P32505 201-251, looked up)
# chain: B1 chain with L39H
# notes: Nab2p NLS, residues 201-251; also called L239 to H; source: E. coli BL21(DE3), purified (amylose resin, cation exchange)
# B15: MBP–Nab2p NLS L239D (domain or fragment, S. cerevisiae, UniProt P32505 201-251, looked up)
# chain: B1 chain with L39D
# notes: as for B4
# B16: MBP–Nab2p NLS L239Q (domain or fragment, S. cerevisiae, UniProt P32505 201-251, looked up)
# chain: B1 chain with L39Q
# notes: Nab2p NLS, residues 201-251; also called L239 to Q; source: E. coli BL21(DE3), purified (amylose resin, cation exchange)
# B17: MBP–Nab2p NLS L239V (domain or fragment, S. cerevisiae, UniProt P32505 201-251, looked up)
# chain: B1 chain with L39V
# notes: Nab2p NLS, residues 201-251; also called L239 to V; source: E. coli BL21(DE3), purified (amylose resin, cation exchange)
# B18: MBP–Nab2p NLS L239G (domain or fragment, S. cerevisiae, UniProt P32505 201-251, looked up)
# chain: B1 chain with L39G
# notes: as for B4
# B19: MBP–Nab2p NLS 238PL239/AA (domain or fragment, S. cerevisiae, UniProt P32505 201-251, looked up)
# chain: B1 chain with P38A, L39A
# notes: as for B4
# B20: MBP–Nab2p NLS L239E (domain or fragment, S. cerevisiae, UniProt P32505 201-251, looked up)
# chain: B1 chain with L39E
# notes: as for B4
# B21: MBP–Nab2p NLS R218, R219, R222, R226, R229/AAAAA (domain or fragment, S. cerevisiae, UniProt P32505 201-251, looked up)
# chain: B1 chain with R18A, R19A, R22A, R26A, R29A
# notes: Nab2p NLS, residues 201-251; also called pentamutant; source: E. coli BL21(DE3), purified (amylose resin, cation exchange)
# B22: MBP–Nab2p NLS L239F (domain or fragment, S. cerevisiae, UniProt P32505 201-251, looked up)
# chain: B1 chain with L39F
# notes: Nab2p NLS, residues 201-251; also called L239 to F; source: E. coli BL21(DE3), purified (amylose resin, cation exchange)
# B23: MBP–Nab2p NLS F236L (domain or fragment, S. cerevisiae, UniProt P32505 201-251, looked up)
# chain: B1 chain with F36L
# notes: as for B4
# Molecular target: T1, Kap104p
# Assay: ITC; 90–350 μM MBP-NLS titrated into 9–35 μM Kap104p in the cell; 20 °C; 20 mM Tris pH 7.5, 100 mM NaCl, 2 mM β-mercaptoethanol, 10% glycerol; 35 injections of 8 μl; single-site model
# Settings: both partners purified
Binder,Kd [nM],binding result,"KD,mutant/KD,wild type",fold decrease in affinity against wild type [fold]
B1,37,,,
B2,,binds,,
B3,,binds,,
B4,,binds,,
B5,,binds,,
B6,,,~1,
B7,,binds,,
B8,,,8,
B9,13,,,
B10,,binds,,
B11,,binds,,
B12,,binds,,
B13,,binds,,
B14,,binds,,
B15,,,,11
B16,,binds,,
B17,,binds,,
B18,,binds,,
B19,376,,,
B20,,,,7
B21,2250,,,
B22,,binds,,
B23,,binds,,
